In PMC5268383, “Inhibition of STAT3 by Anticancer Drug Bendamustine” (PLoS ONE, 2017):
Blank lines part the entries; values can stand above or below the molecule they belong to. Where no end group is shown, it is not given here. [ ]: non-standard residue; d: D form. pY = N[C@@H](Cc1ccc(OP(=O)(O)O)cc1)C(=O)O

What was measured:
[1] = tested on: MDA-MB-468 cells and MDA-MB-453 cells; design: method as in PMID 26010889; details: cited from earlier work
[2] = target: T1, cellular STAT3 in MDA-MB-468 cells (Homo sapiens, UniProt P40763); assay: Pull-down assay using Bio-BENDA, anti-STAT3 immunoprecipitation; assay type: cell-based; details: 50 μM Bio-BENDA, 4 h
T1 construct: endogenous in cells; host or cells: MDA-MB-468
T1 sequence (P40763 2-770 limits assumed): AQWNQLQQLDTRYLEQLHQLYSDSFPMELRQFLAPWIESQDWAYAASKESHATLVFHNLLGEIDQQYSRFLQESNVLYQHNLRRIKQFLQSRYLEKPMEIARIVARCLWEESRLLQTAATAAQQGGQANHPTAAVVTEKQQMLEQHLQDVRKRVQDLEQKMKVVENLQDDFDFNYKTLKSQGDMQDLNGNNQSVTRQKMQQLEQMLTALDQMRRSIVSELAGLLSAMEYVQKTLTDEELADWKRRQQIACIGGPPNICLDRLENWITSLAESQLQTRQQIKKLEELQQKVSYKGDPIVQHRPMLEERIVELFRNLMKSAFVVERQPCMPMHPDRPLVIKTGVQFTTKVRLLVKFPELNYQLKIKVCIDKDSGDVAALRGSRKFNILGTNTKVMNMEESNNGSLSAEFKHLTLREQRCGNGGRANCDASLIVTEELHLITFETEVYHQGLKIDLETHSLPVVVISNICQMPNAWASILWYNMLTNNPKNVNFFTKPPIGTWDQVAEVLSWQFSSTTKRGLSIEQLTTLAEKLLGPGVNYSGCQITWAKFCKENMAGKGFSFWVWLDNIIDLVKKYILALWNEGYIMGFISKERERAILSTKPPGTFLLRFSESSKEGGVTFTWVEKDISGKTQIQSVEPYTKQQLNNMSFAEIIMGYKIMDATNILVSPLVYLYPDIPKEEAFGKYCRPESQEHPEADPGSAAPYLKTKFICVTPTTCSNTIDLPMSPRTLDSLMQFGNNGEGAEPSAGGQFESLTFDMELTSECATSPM
Procedure: MDA-MB-468 cells were treated with biotinylated BENDA (Bio-BENDA) in the presence or absence of an excess amount of free drugs for 4 h and then lysed in PhosphoSafe™ Extraction Reagent (Merck, Darmstadt, Germany). Lysate (200 μL) was precleared with a mixture of Protein G Plus/Protein A Agarose Suspension (EMD Millipore, Billerica, MA, USA) for 1 h at 4°C and protein A and G agarose were removed by centrifugation at 13,000 rpm for 10 min. The lysate (200 μL) was immunoprecipitated with STAT3 antibody (1 μL) overnight at 4°C on a shaker and the immunocomplex was captured by the addition of a Protein G Plus/Protein A Agarose Suspension (30 μL) slurry for 1 h at 4°C. Samples were washed five times with lysis buffer and then boiled four times in SDS-PAGE sample buffer and run on an SDS-PAGE gel. The protein was transferred to a nitrocellulose membrane. The membranes were blocked in 5% skim milk in TBS/0.1% Tween 20. They were then incubated with streptavidin-HRP diluted at 1:2000 in 1.5% skim milk in TBS (pH7.4)/0.1% Tween 20 overnight at 4°C. Immunoblots were developed by using a chemiluminescent substrate.

[3] = target: T2, cellular STAT1 in MDA-MB-468 cells (Homo sapiens, UniProt P42224); assay: Pull-down assay using Bio-BENDA, anti-STAT1 immunoprecipitation; assay type: cell-based; details: 50 μM Bio-BENDA, 4 h
T2 construct: endogenous in cells; host or cells: MDA-MB-468
T2 sequence (P42224 whole entry): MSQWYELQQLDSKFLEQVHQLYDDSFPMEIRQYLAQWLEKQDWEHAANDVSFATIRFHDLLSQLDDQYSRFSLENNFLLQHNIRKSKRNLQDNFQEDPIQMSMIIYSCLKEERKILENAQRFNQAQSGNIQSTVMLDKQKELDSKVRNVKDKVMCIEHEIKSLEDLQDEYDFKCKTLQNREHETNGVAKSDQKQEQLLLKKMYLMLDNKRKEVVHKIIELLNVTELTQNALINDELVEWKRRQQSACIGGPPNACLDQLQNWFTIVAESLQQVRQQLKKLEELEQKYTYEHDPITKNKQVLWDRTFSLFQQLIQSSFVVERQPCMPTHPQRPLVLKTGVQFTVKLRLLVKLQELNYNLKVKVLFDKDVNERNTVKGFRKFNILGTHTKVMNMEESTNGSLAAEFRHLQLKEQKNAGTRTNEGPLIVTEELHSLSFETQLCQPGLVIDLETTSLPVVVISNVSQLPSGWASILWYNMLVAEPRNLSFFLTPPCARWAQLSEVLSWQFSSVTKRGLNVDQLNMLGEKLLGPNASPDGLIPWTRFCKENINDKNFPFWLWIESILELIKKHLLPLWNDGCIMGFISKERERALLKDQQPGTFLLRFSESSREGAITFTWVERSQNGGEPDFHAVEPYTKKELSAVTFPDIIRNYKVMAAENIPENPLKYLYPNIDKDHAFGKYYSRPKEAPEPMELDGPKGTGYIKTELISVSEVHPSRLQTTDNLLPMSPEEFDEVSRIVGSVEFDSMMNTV

[4] = target: T3, recombinant human STAT3 SH2 domain (Homo sapiens, UniProt P40763); assay: AlphaScreen SH2 binding assay, STAT3
T3 construct: Full-length cDNAs were obtained from a human cDNA library by PCR; Avi-tag (biotinylated in BirA-BL21) (N); made in house; host or cells: Escherichia coli BirA-BL21
T3 sequence (P40763 whole entry, the tested form may be a part): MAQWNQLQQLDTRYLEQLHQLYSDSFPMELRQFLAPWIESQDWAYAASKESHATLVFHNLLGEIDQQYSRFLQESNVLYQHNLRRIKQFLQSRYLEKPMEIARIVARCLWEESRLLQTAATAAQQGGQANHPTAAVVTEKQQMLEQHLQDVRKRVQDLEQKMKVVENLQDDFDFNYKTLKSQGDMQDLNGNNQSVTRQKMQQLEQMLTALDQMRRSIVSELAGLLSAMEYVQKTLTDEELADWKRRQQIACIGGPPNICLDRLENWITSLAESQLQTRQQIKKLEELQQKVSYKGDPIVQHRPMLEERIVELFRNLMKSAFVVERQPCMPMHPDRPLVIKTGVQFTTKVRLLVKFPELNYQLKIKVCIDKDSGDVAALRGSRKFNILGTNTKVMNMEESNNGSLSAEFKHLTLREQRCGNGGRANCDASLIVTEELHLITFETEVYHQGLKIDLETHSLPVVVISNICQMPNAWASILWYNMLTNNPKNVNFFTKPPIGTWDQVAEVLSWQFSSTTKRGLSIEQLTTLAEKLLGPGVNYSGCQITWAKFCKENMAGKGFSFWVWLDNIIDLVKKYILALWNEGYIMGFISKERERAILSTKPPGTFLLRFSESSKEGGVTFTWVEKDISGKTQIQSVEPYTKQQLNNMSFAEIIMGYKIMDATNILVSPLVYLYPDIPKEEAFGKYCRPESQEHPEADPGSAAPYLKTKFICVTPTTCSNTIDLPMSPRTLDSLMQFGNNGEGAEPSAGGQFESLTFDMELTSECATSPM
Procedure: AlphaScreen assays were performed in a final reaction volume of 25 μL of the assay buffer, containing 10 mM HEPES-NaOH (pH 7.4), 50 mM NaCl, 1 mM EDTA (pH 8.0), 0.1% NP-40, and 10 ng/mL BSA in a 96-well microtiter plate at 25°C. The labeled Phospho-Tyr (pTyr) peptide probe was 5-carboxyfluorescein (FITC)-GpYLPQTV for STAT3, FITC-GpYDKPHVL for STAT1, and FITC-PSpYVNVQN for Grb2. A DMSO solution of BENDA was incubated with 50 nM of each SH2-containing protein for 15 min, 50 nM of the corresponding FITC-pTyr peptide was added, and the mixture was incubated for 90 min. Streptavidin-coated donor beads and anti-FITC acceptor beads were added and incubated for 90 min before the signals were measured with an Envision Xcite plate reader (PerkinElmer Life Sciences, Waltham, MA, USA).

[5] = target: T4, recombinant human STAT3 (signal transducer and activator of transcription 3) (human, UniProt P40763 1-770, biotin (Avi-tag; expressed in BirA-BL21 cells induced with 50 μM biotin)); assay: AlphaScreen or HTRF; 50 nM SH2-containing protein pre-incubated 15 min with BENDA in DMSO, then 50 nM FITC-pTyr peptide 90 min; streptavidin-coated donor beads and anti-FITC acceptor beads 90 min; 10 mM HEPES-NaOH pH 7.4, 50 mM NaCl, 1 mM EDTA, 0.1% NP-40, 10 ng/mL BSA, 25°C; details: both partners purified
T4 construct: human STAT3, full-length cDNA from a human cDNA library, cloned into modified pET-28a(+); also called rhSTAT3; wild-type rhSTAT3; source: E. coli BirA-BL21, purified (Ni Sepharose, dialysis); not shown: Avi-tag, N-terminal, kept
T4 sequence (P40763 whole entry): as the sequence (P40763 whole entry, the tested form may be a part) above

[6] = target: T5, mutant recombinant human STAT3, C712A (human, UniProt P40763 1-770, C712A, biotin (Avi-tag; expressed in BirA-BL21 cells induced with 50 μM biotin)); assay: AlphaScreen or HTRF; 375 nM mutant recombinant STAT3 incubated with 100 μM BENDA in DMSO for 30 min, then the AlphaScreen SH2 binding assay with the phosphotyrosine peptide; details: both partners purified
T5 construct: human STAT3, full-length cDNA, single point mutation by inverse PCR, in modified pET-28a(+); Expression and purification are described for the wild type; also called Cys712 mutant; mutant STAT3 His-Avi-pET28a (+); source: E. coli BirA-BL21, purified (Ni Sepharose, dialysis); not shown: Avi-tag, N-terminal, kept
T5 sequence (P40763 whole entry C712A): as the sequence (P40763 whole entry, the tested form may be a part) above, with C712A counted along it

[7] = target: T6, mutant recombinant human STAT3, Cys468 to alanine (human, UniProt P40763 1-770, Cys468 to alanine, biotin (Avi-tag; expressed in BirA-BL21 cells induced with 50 μM biotin)); assay: as above; details: both partners purified
T6 construct: human STAT3, full-length cDNA, single point mutation by inverse PCR, in modified pET-28a(+); Expression and purification are described for the wild type; also called Cys468 mutant; mutant STAT3 His-Avi-pET28a (+); source: E. coli BirA-BL21, purified (Ni Sepharose, dialysis); not shown: Avi-tag, N-terminal, kept
T6 sequence (P40763 other isoform, or with tags, fused parts or gaps Cys468 to alanine | Cys468 to alanine | mutant): as the sequence (P40763 whole entry, the tested form may be a part) above, with C468A counted along it

[8] = target: T7, mutant recombinant human STAT3, C550A (human, UniProt P40763 1-770, C550A, biotin (Avi-tag; expressed in BirA-BL21 cells induced with 50 μM biotin)); assay: as above; details: both partners purified
T7 construct: human STAT3, full-length cDNA, single point mutation by inverse PCR, in modified pET-28a(+); Expression and purification are described for the wild type; also called Cys550 mutant; mutant STAT3 His-Avi-pET28a (+); source: E. coli BirA-BL21, purified (Ni Sepharose, dialysis); not shown: Avi-tag, N-terminal, kept
T7 sequence (P40763 whole entry C550A): as the sequence (P40763 whole entry, the tested form may be a part) above, with C550A counted along it

[9] = target: T8, mutant recombinant human STAT3, Cys687 to alanine (human, UniProt P40763 1-770, Cys687 to alanine, biotin (Avi-tag; expressed in BirA-BL21 cells induced with 50 μM biotin)); assay: as above; details: both partners purified
T8 construct: human STAT3, full-length cDNA, single point mutation by inverse PCR, in modified pET-28a(+); Expression and purification are described for the wild type; also called Cys687 mutant; mutant STAT3 His-Avi-pET28a (+); source: E. coli BirA-BL21, purified (Ni Sepharose, dialysis); not shown: Avi-tag, N-terminal, kept
T8 sequence (P40763 other isoform, or with tags, fused parts or gaps Cys687 to alanine | Cys687 to alanine | mutant): as the sequence (P40763 whole entry, the tested form may be a part) above, with C687A counted along it

[10] = target: T9, mutant recombinant human STAT3, Cys542 to alanine (human, UniProt P40763 1-770, Cys542 to alanine, biotin (Avi-tag; expressed in BirA-BL21 cells induced with 50 μM biotin)); assay: as above; details: both partners purified
T9 construct: human STAT3, full-length cDNA, single point mutation by inverse PCR, in modified pET-28a(+); Expression and purification are described for the wild type; also called Cys542 mutant; mutant STAT3 His-Avi-pET28a (+); source: E. coli BirA-BL21, purified (Ni Sepharose, dialysis); not shown: Avi-tag, N-terminal, kept
T9 sequence (P40763 other isoform, or with tags, fused parts or gaps Cys542 to alanine | Cys542 to alanine | mutant): as the sequence (P40763 whole entry, the tested form may be a part) above, with C542A counted along it

Molecule: C=C1C(=O)[C@]23C[C@H]1CC[C@H]2[C@@]12CO[C@]3(O)[C@@H](O)[C@@H]1C(C)(C)C=CC2=O [Eriocalyxin B]
- Growth inhibition of MDA-MB-468 versus MDA-MB-453 cells [1]: inhibit the growth of MDA-MB-468 cells more than that of the MDA-MB-453 cells

Molecule: Cn1c(CCCC(=O)OCCOCCOCCOCCNC(=O)CCC[C@@H]2SC[C@@H]3NC(=O)N[C@@H]32)nc2cc(N(CCCl)CCCl)ccc21 [Bio-BENDA, 13-Oxo-16-[(3aS,4S,6aR)-2-oxohexahydro-1H-thieno[3,4-d]imidazol-4-yl]-3,6,9-trioxa-12-azahexadecyl 4-{5-[bis(2-chloroethyl)amino]-1-methyl-1H-benzo[d]imidazol-2-yl}butanoate]
- Binding to cellular STAT3 (band by streptavidin-HRP after anti-STAT3 IP) [2]: the STAT3 band was observed
- Binding to cellular STAT1 (band by streptavidin-HRP after anti-STAT1 IP) [3]: no band

Molecule: O=[N+]([O-])c1ccc2c(c1)S(=O)(=O)C=C2 [Stattic]
- Growth inhibition of MDA-MB-468 versus MDA-MB-453 cells [1]: inhibit the growth of MDA-MB-468 cells more than that of the MDA-MB-453 cells

Molecule: CCOC(=O)CCCc1nc2cc(N(CCCl)CCCl)ccc2n1C [BM1EE, BENDA ethyl ester]
- IC50 [4]: 6.1 µM

- binding result [5]: binds
- binding result [6]: binds
- binding result [7]: binds
- binding result [8]: binds
- binding result [9]: binds
- binding result [10]: binds
B1: 5-carboxyfluorescein (FITC)-GpYLPQTV, labeled Phospho-Tyr peptide probe for STAT3 (peptide)
peptide: G[pY]LPQTV
modifications: not fully specified (N-terminus)
notes: the leading G is not the natural residue there; also called phosphotyrosine peptide; pTyr peptide; source: synthetic peptide (NippiBiomatrix Laboratory)
